Molecular target: the molecule itself
Experiment: AUC; analytical ultracentrifugation of VibO (Supplementary Fig. 24b); conditions not shown

B1: VibO, NADPH/FAD-dependent monooxygenase (oxepinone-forming enzyme) of Boreostereum vibrans (enzyme)
chain: MAAVENFEGYVEPELFERPGTSLPNKLGVMPQLTWPNVLNGTNCEKPAVPNYKPPSKVDVIIIGAGPVGLTTAACLLRQGITVRILDRSPHPLPVGRADGLQPRSMEVFDLLGLGEEVYHVGIRVEHTTVYKDGKQHIFAESHQAPGNEAHYTGLHACTQTEVEHLLIRDLIRHDILVERPCTATSYTFDEEADASVTHPITVNITNEATGAEEVVTARFLVGSDGAHSMIRKSLPIEFPGVKTDLHWGIVDAVINSDFPHRWTFGTVLNSEYGGCLIIPRERNMVRLYVQLRAEPGKAFDHSKWGPEEILVILNKVFAPYTLSYAEPVDWYTILTINERVATSFTYKDRIFLAGDSCHVHSAKGAFGMNTGVMDAHNLAWKLAMLCRGIAKPSLLASYDVERRENALRAVATSARYLRFVGNCTFQAIDGSGEVDKEADELVVPPGEDKDVFYFKKFVGQVGRFLIGLDVDYAENALNKLSPAVSRARAGYRASNPRVALSRSHSGRLYHSFGHLGQFTLLVFASNMGGALNAKLHALDSYLAGPSSFYHAYGGADTFKIVVVVRATPSQADQRVKTFPFLSKAGHTVYDDQLPLSHFGGDAHALYGVSHEEGAIVVVRPDSWIGTSSTISDARSLESYFDGFLFKSTEGSY
stoichiometry N: 2

Source: publication PMC10257657 (Nature Communications, 2023)
